Measured values reported in patent JP2019059762A (dated 2019).
Values joined by “and” are separate entries in the source; they are usually repeats but may differ in a detail not shown here. Equal values may be shown once.

Legend:
Assay in all cases: cell-based or functional assay
recombinant human IL-13 = recombinant human IL-13 (human, UniProt P35225 35-146, limits assumed)
cynomolgus monkey IL-4 = target: T1, cynomolgus monkey IL-4 (cynomolgus monkey, UniProt P79339 25-153)
T1 sequence (looked up): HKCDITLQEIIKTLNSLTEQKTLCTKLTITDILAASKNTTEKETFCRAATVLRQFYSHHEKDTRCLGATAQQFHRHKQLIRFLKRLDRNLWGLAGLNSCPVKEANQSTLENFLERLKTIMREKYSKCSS

cynomolgus monkey IL-13 = cynomolgus monkey IL-13 (cynomolgus monkey, UniProt Q0PW92 21-132)
cynomolgus monkey IL-13, sequence (Q0PW92 entry or part of it): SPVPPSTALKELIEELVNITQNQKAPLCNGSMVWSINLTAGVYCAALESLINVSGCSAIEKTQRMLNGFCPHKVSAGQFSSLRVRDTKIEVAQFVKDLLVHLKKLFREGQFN

recombinant human IL-13, sequence (P35225 35-146 limits assumed): as the sequence (Q0PW92 entry or part of it) above, with S1G, K10R, V42M, N67S, R83H, V100L counted along it

B1: huTBTI3_2_1 (bispecific antibody)
chain 1: EVQLKESGPGLVAPGGSLSITCTVSGFSLTDSSINWVRQPPGKGLEWLGMIWGDGRIDYADALKSRLSISKDSSKSQVFLEMTSLRTDDTATYYCARDGYFPYAMDFWGQGTSVTVSSGGGGSGGGGSQVQLQQSGPELVKPGASVKISCKASGYSFTSYWIHWIKQRPGQGLEWIGMIDPSDGETRLNQRFQGRATLTVDESTSTAYMQLRSPTSEDSAVYYCTRLKEYGNYDSFYFDVWGAGTLVTVSSA
chain 2: DIVLTQSPASLAVSLGQRATISCRASESVDSYGQSYMHWYQQKAGQPPKLLIYLASNLESGVPARFSGSGSRTDFTLTIDPVQAEDAATYYCQQNAEDSRTFGGGTKLEIKGGGGSGGGGSDIQMTQSPASLSVSVGDTITLTCHASQNIDVWLSWFQQKPGNIPKLLIYKASNLHTGVPSRFSGSGSGTGFTLTISSLQPEDIATYYCQQAHSYPFTFGGGTKLEIKR
Question: For B1, which “IC50, inhibition of IL-4- and IL-13-induced LOX gene expression in IPF lung fibroblasts” value (recombinant human IL-13) is on record?
Answer: Its value is 3 nM and 6 nM.

Question: And the “IC50, inhibition of IL-13-induced Stat6 phosphorylation in human whole blood monocytes, donor 002” value (recombinant human IL-13)?
Answer: Its value is 1.32 nM.

Question: What about the “IC50, inhibition of IL-13-induced Stat6 phosphorylation in human whole blood monocytes, donor 229” value (recombinant human IL-13) of the same binder?
Answer: Its value is 3.68 nM.

Question: And the “IC50, inhibition of IL-13-induced Stat6 phosphorylation in human whole blood monocytes, donor 245” value (recombinant human IL-13)?
Answer: The value was 2.65 nM.

Question: And the “IC50, suppression of IL-6 release from IPF lung fibroblasts (LL97A) stimulated with rhIL-13 + rhIL-4 together” value (recombinant human IL-13)?
Answer: Its value is 7.8 nM.

Question: And the “IC50, suppression of eotaxin release from IPF lung fibroblasts (LL97A) stimulated with rhIL-13 + rhIL-4 together” value (recombinant human IL-13)?
Answer: The value was 3.8 nM.

Question: And the “geometric mean IC50, inhibition of hIL-13-induced TF-1 cell proliferation” value (recombinant human IL-13)?
Answer: The value was 3.02 nM.

Question: And the “geometric mean IC50 of three experiments, inhibition of IL-13-induced Stat6 phosphorylation” value (recombinant human IL-13)?
Answer: Its value is 2.34 nM.

Question: What about the “geometric mean IC50, inhibition of cIL-4-induced TF-1 cell proliferation” value (cynomolgus monkey IL-4) of the same binder?
Answer: Its value is 0.53 nM.

Question: And the “geometric mean IC50, inhibition of cIL-13-induced TF-1 cell proliferation” value (cynomolgus monkey IL-13)?
Answer: The value was 0.45 nM.
